Our source for the Kd values is article PMC10441670.

Series [1] concerns MHV68UNGΔN-Ls (murine gammaherpesvirus 68 / mouse chimera). As to the kind of experiment: fluorescence anisotropy. The note with it: N15 of strand 1 = abasic (AP) site made from U by UNG; G opposite.
Series [2] has as its system MHV68UNG (murine gammaherpesvirus 68). As to the kind of experiment: fluorescence anisotropy. The note with it: N15 of strand 1 = abasic (AP) site made from U by UNG; G opposite. Background: Polarisation of emitted light reports the rotation of a fluorescent probe.

As to “AGAAAAGGGGAAAGNAAAGAGGAAAGGTGAGGAGGT / ACCTCCTCACCTTTCCTCTTTGCTTTCCCCTTTTCT [AP:G dsDNA (fluorescein)]”, the figures for the Kd in series [1] and in series [2] were 751 nM and 680 nM, respectively.

One may read the Kd as the concentration at which binding is half-saturated. The low end stands for higher affinity, the high end for lower affinity.
